{"source": "the RNAGym collection of RNA variant scans (doi:10.7554/elife.80360)", "parents": {"B1": {"name": "HDV Ribozyme (parent)", "chain": "GGCCGGCAUGGUCCCAGCCUCCUCGCUGGCGCCGGCUGGGCAACAUUCCGAGGGGACCGUCCCCUCGGUAAUGGCGAAUGGGACCCA"}}, "data": [{"variants_of": "B1", "assay": "self-cleavage, relative activity (ratio to wild type); higher = more cleavage; co-transcriptional", "values": [{"variant": "GGCCGGCAUGGUCACAACCUCCUCGCUGGCGCCGGCUGGGCAACAUUCCGAGGGGACCGUCCCCUCGGUAAUGGCGAAUGGGACCCA", "self-cleavage": 0}, {"variant": "GGCCGGCAUGGUCACAGCCUCCUCGCUGGCGACGGCUGGGCAACAUUCCGAGGGGACCGUCCCCUCGGUAAUGGCGAAUGGGACCCA", "self-cleavage": 0.148}, {"variant": "GGCCGGCAUGGUCACAGCCUCCUCGCUGGCGUCGGCUGGGCAACAUUCCGAGGGGACCGUCCCCUCGGUAAUGGCGAAUGGGACCCA", "self-cleavage": 0.458}, {"variant": "GGCCGGCAUGGUCACAGCCUCCUCGCUGGCGCCGGCUGGGCAACAUUCCGAGGGGACCGUUCCCUCGGUAAUGGCGAAUGGGACCCA", "self-cleavage": 0.656}, {"variant": "GGCCGGCAUGGUCACAGCCUCCUCGCUGGCGCCGGCUGGGCAACAUUCCGAGGGGACCGUCCCCUCGGUAAUGGGGAAUGGGACCCA", "self-cleavage": 0.256}, {"variant": "GGCCGGCAUGGUCACAGCCUCCUCGCUGGCGCCGGCUGGGCAACAUUCCGAGGGGACCGUCCCCUCGGUAAUGGAGAAUGGGACCCA", "self-cleavage": 0.208}, {"variant": "GGCCGGCAUGGUCAAAGCCUCCUCGCUGGCGCCGGCUGGGCAACAUUCCGAGGGGACCGUCCCCUCGGUAAUGGCGAAUGGGACCCA", "self-cleavage": 0.582}, {"variant": "GGCCGGCAUGGUCAGAGCCUCCUCGCUGGCGCCGGCUGGGCAACAUUCCGAGGGGACCGUCCCCUCGGUAAUGGCGAAUGGGACCCA", "self-cleavage": 0.138}, {"variant": "GGCCGGCAUGGUCACAGCCUCCUCGCUGGCGCCGGCUGGGCAACAUUCCGAGGGGACCGUCCCCUCGGUAAUGGCGAAUGGGUCCCA", "self-cleavage": 0.499}, {"variant": "GGCCGGCAUGGUCACAGCCUCCUCGCUGGCGCCGGCUGGGCAACAUUCCGAGGGGACCGUCCCCUCGGUAAUGGCGAAUGGGCCCCA", "self-cleavage": 0.0755}, {"variant": "GGCCGGCAUGGUCACAGCCUCCUCGCUAGCGCCGGCUGGGCAACAUUCCGAGGGGACCGUCCCCUCGGUAAUGGCGAAUGGGACCCA", "self-cleavage": 0.141}, {"variant": "GGCCGGCAUGGUCACAGCCUCCUCGCUUGCGCCGGCUGGGCAACAUUCCGAGGGGACCGUCCCCUCGGUAAUGGCGAAUGGGACCCA", "self-cleavage": 0.0733}, {"variant": "GGCCGGCAUGGUCACAGCCUCCUCGCUGGCGCCGGCUUGGCAACAUUCCGAGGGGACCGUCCCCUCGGUAAUGGCGAAUGGGACCCA", "self-cleavage": 0.182}, {"variant": "GGCCGGCAUGGUCACAGCCUCCUCGCUGGCGCCGGCUAGGCAACAUUCCGAGGGGACCGUCCCCUCGGUAAUGGCGAAUGGGACCCA", "self-cleavage": 0}, {"variant": "GGCCGGCAUGGUCACAGCCUCCUCGCUGGCGCCGGCUCGGCAACAUUCCGAGGGGACCGUCCCCUCGGUAAUGGCGAAUGGGACCCA", "self-cleavage": 0.141}, {"variant": "GGCCGGCAUGGUCACAGCCUCCUCGCUGGCGCCGGCUGGGCAACAUUCCGAGGGGACCGUCCCCUCGGUAAUGGCGAAUGGGAGCCA", "self-cleavage": 0.623}, {"variant": "GGCCGGCAUGGUCACAGCCUCCUCGCUGGCGCCGGCUGGGCAACAUUCCGAGGGCACCGUCCCCUCGGUAAUGGCGAAUGGGACCCA", "self-cleavage": 0.767}, {"variant": "GGCCGGCAUGGUCACAGCCUCCUCGCUGGCGCCGGCUGGGCAACAUUCCGAGGGGACUGUCCCCUCGGUAAUGGCGAAUGGGACCCA", "self-cleavage": 0.705}, {"variant": "GGCCGGCAUGGUCACAGCGUCCUCGCUGGCGCCGGCUGGGCAACAUUCCGAGGGGACCGUCCCCUCGGUAAUGGCGAAUGGGACCCA", "self-cleavage": 0}, {"variant": "GGCCGGCAUGGUCACAGCUUCCUCGCUGGCGCCGGCUGGGCAACAUUCCGAGGGGACCGUCCCCUCGGUAAUGGCGAAUGGGACCCA", "self-cleavage": 0.182}, {"variant": "GGCCGGCAUGGUCACAGCCUCCUCGCUGGCGCCGGCUGGGCAACAUUUCGAGGGGACCGUCCCCUCGGUAAUGGCGAAUGGGACCCA", "self-cleavage": 0.791}, {"variant": "GGCCGGCAUGGUCACAGGCUCCUCGCUGGCGCCGGCUGGGCAACAUUCCGAGGGGACCGUCCCCUCGGUAAUGGCGAAUGGGACCCA", "self-cleavage": 0}, {"variant": "GGCCGGCAUGGUCACAGUCUCCUCGCUGGCGCCGGCUGGGCAACAUUCCGAGGGGACCGUCCCCUCGGUAAUGGCGAAUGGGACCCA", "self-cleavage": 0}, {"variant": "GGCCGGCAUGGUCACAGCCUCCUCGCUGGCGCCGGCUGGGCAACAUUCCGAGGGGACCGUCCCCUCGGUAAUGGCGAAUGGGACCAA", "self-cleavage": 0.886}, {"variant": "GGCCGGCAUGGUCACAGCCUGCUCGCUGGCGCCGGCUGGGCAACAUUCCGAGGGGACCGUCCCCUCGGUAAUGGCGAAUGGGACCCA", "self-cleavage": 0.141}, {"variant": "GGCCGGCAUGGUCACAGCCUACUCGCUGGCGCCGGCUGGGCAACAUUCCGAGGGGACCGUCCCCUCGGUAAUGGCGAAUGGGACCCA", "self-cleavage": 0.0652}, {"variant": "GGCCGGCAUGGUCACAGCCUCCUCGCUGGCGCCGGCUGGGCAACAUUCCGAGGGGACCGUCACCUCGGUAAUGGCGAAUGGGACCCA", "self-cleavage": 1.06}, {"variant": "GGCCGGCAUGGUCACAGCCUCCUCGCUGGCGCCGGCUGGGCAACAUUCCGAGGGGACCGUCGCCUCGGUAAUGGCGAAUGGGACCCA", "self-cleavage": 0.582}, {"variant": "GGCCGGCAUGGUCACAGCCUCCUCGCUGGCGCCGGCUGGGCAACAUUCCGAGGGGACCGUCUCCUCGGUAAUGGCGAAUGGGACCCA", "self-cleavage": 0.623}, {"variant": "GGCCGGCAUGGUCACAGCCUCCUCGCUGGCGCUGGCUGGGCAACAUUCCGAGGGGACCGUCCCCUCGGUAAUGGCGAAUGGGACCCA", "self-cleavage": 0.587}, {"variant": "GGCCGGCAUGGUCACAGCCUCCUCGCUGGCGCAGGCUGGGCAACAUUCCGAGGGGACCGUCCCCUCGGUAAUGGCGAAUGGGACCCA", "self-cleavage": 0.0959}, {"variant": "GGCCGGCAUGGUCACAGCCUCCUCGCUGGCGCGGGCUGGGCAACAUUCCGAGGGGACCGUCCCCUCGGUAAUGGCGAAUGGGACCCA", "self-cleavage": 0.213}, {"variant": "GGCCGGCAUGGUCACAGCCUCCUCGCUGGCGCCGUCUGGGCAACAUUCCGAGGGGACCGUCCCCUCGGUAAUGGCGAAUGGGACCCA", "self-cleavage": 0.232}, {"variant": "GGCCGGCAUGGUCACAGCCUCCUCGCUGGCGCCGACUGGGCAACAUUCCGAGGGGACCGUCCCCUCGGUAAUGGCGAAUGGGACCCA", "self-cleavage": 0.0426}, {"variant": "GGCCGGCAUGGUCACAGCCUCCUCGCUGGCGCCGCCUGGGCAACAUUCCGAGGGGACCGUCCCCUCGGUAAUGGCGAAUGGGACCCA", "self-cleavage": 0.0536}, {"variant": "GGCCGGCAUGGUCACAGCCUCCUCGCUGGCGCCGGCUGGGUAACAUUCCGAGGGGACCGUCCCCUCGGUAAUGGCGAAUGGGACCCA", "self-cleavage": 0.539}, {"variant": "GGCCGGCAUGGUCACAGCCUCCUCGCUGUCGCCGGCUGGGCAACAUUCCGAGGGGACCGUCCCCUCGGUAAUGGCGAAUGGGACCCA", "self-cleavage": 0.0966}, {"variant": "GGCCGGCAUGGUCACAGCCUCUUCGCUGGCGCCGGCUGGGCAACAUUCCGAGGGGACCGUCCCCUCGGUAAUGGCGAAUGGGACCCA", "self-cleavage": 0.181}, {"variant": "GGCCGGCAUGGUCACAGCCUCCUCGCUGGCGCCGGCUGGACAACAUUCCGAGGGGACCGUCCCCUCGGUAAUGGCGAAUGGGACCCA", "self-cleavage": 0.706}, {"variant": "GGCCGGCAUGGUCACAGCCUCCUCGCUGGCGCCGGCUGGGCAACAUUCCGAGGGGACCGUCCCCUCGGUAAUGGCGAAUGGGACCCG", "self-cleavage": 0.659}, {"variant": "GGCCGGCAUGGUCACAGCCUCCUCGCUGGCGCCGGCUGGGCAAUAUUCCGAGGGGACCGUCCCCUCGGUAAUGGCGAAUGGGACCCA", "self-cleavage": 0.166}, {"variant": "GGCCGGCAUGGUCACAGCCUCCUCGCUGGCGCCGGCUGGGCAAGAUUCCGAGGGGACCGUCCCCUCGGUAAUGGCGAAUGGGACCCA", "self-cleavage": 0.346}, {"variant": "GGCCGGCAUGGUCACAGCCUCCUCGCUGGCGCCGGCUGGGCAACAUUCCGAGGGGACCGUCCUCUCGGUAAUGGCGAAUGGGACCCA", "self-cleavage": 0.731}, {"variant": "GGCCGGCAUGGUCACAGCCUCCUCGCUGGCGCCGGCUGGGCAACAUUCCGAGGGGACCGUCCACUCGGUAAUGGCGAAUGGGACCCA", "self-cleavage": 0.755}, {"variant": "GGCCGGCAUGGUCACAGCCUCCUCGCUGGCGCCGGCUGUGCAACAUUCCGAGGGGACCGUCCCCUCGGUAAUGGCGAAUGGGACCCA", "self-cleavage": 0.222}, {"variant": "GGCCGGCAUGGUCACAGCCUCCUCGCUGGCGCCGGCUGAGCAACAUUCCGAGGGGACCGUCCCCUCGGUAAUGGCGAAUGGGACCCA", "self-cleavage": 0.177}, {"variant": "GGCCGGCAUGGUCACAGCCUCCUCGCUGGCGCCGGCUGGGCAACAUUCGGAGGGGACCGUCCCCUCGGUAAUGGCGAAUGGGACCCA", "self-cleavage": 0.101}, {"variant": "GGCCGGCAUGGUCACAGCCUCCUCGCUGGCGCCGGCUGGGCAACAUUCUGAGGGGACCGUCCCCUCGGUAAUGGCGAAUGGGACCCA", "self-cleavage": 0.7}, {"variant": "GGCCGGCAUGGUCACAGCCUCCUCGCUGGCGCCGGCUGGGCAACAUUCCGAGGGGAGCGUCCCCUCGGUAAUGGCGAAUGGGACCCA", "self-cleavage": 0.72}, {"variant": "GGCCGGCAUGGUCACAGCCUCCUCGCUGGCGCCGGCUGGGCAACAUUCCGAGGGGAUCGUCCCCUCGGUAAUGGCGAAUGGGACCCA", "self-cleavage": 1.23}, {"variant": "GGCCGGCAUGGUCACAGCCUCCUUGCUGGCGCCGGCUGGGCAACAUUCCGAGGGGACCGUCCCCUCGGUAAUGGCGAAUGGGACCCA", "self-cleavage": 0.0361}, {"variant": "GGCCGGCAUGGUCACAGCCUCCUCACUGGCGCCGGCUGGGCAACAUUCCGAGGGGACCGUCCCCUCGGUAAUGGCGAAUGGGACCCA", "self-cleavage": 0.141}, {"variant": "GGCCGGCAUGGUCACAGCCUCCUCGCUGGCGCCUGCUGGGCAACAUUCCGAGGGGACCGUCCCCUCGGUAAUGGCGAAUGGGACCCA", "self-cleavage": 0.101}, {"variant": "GGCCGGCAUGGUCACAGCCUCCUCGCUGGCGCCGGGUGGGCAACAUUCCGAGGGGACCGUCCCCUCGGUAAUGGCGAAUGGGACCCA", "self-cleavage": 0.107}, {"variant": "GGCCGGCAUGGUCACAGCCUCCUCGAUGGCGCCGGCUGGGCAACAUUCCGAGGGGACCGUCCCCUCGGUAAUGGCGAAUGGGACCCA", "self-cleavage": 0.966}, {"variant": "GGCCGGCAUGGUCACAGCCUCCUCGGUGGCGCCGGCUGGGCAACAUUCCGAGGGGACCGUCCCCUCGGUAAUGGCGAAUGGGACCCA", "self-cleavage": 0.831}, {"variant": "GGCCGGCAUGGUCACAGCCUCCUCGCUGGCGCCGGCUGGGCAACAUUCCGAGGGGACCGUCCCCUCGGUAAUGGCGAAUGGGACGCA", "self-cleavage": 0.906}, {"variant": "GGCCGGCAUGGUCACAGCCUCCUCGCUGGCGCCGGCUGGGCAACAUUCCGAGGGGACCGUCCCCUCGGUAAUGGCGAAUGGGACUCA", "self-cleavage": 0.724}, {"variant": "GGCCGGCAUGGUCACAGCCUCCUCGCUGGCGCCGGCUGGGCAACAUUCCUAGGGGACCGUCCCCUCGGUAAUGGCGAAUGGGACCCA", "self-cleavage": 0.467}, {"variant": "GGCCGGCAUGGUCACAGCCUCCUCGCUGGCGCCGGCUGGGCAACAUUCCGAGGGGACCGUCCCGUCGGUAAUGGCGAAUGGGACCCA", "self-cleavage": 0.892}, {"variant": "GGCCGGCAUGGUCACAGCCUCCUCGCUGGCGCCGGCUGGGCAACAUUCCGAGGCGACCGUCCCCUCGGUAAUGGCGAAUGGGACCCA", "self-cleavage": 0.536}, {"variant": "GGCCGGCAUGGUCACAGCCUCCUCGCUGGCGCCGGCUGGGCAACAUUCCGAAGGGACCGUCCCCUCGGUAAUGGCGAAUGGGACCCA", "self-cleavage": 0.567}, {"variant": "GGCCGGCAUGGUCACAGCCUCCUCGCUGGCGCCGGCUGGGCAACAUUCCGAUGGGACCGUCCCCUCGGUAAUGGCGAAUGGGACCCA", "self-cleavage": 1.03}, {"variant": "GGCCGGCAUGGUCACAGCCUCCUCGCUGGCGCCGGCUGGGCAACAUUCCGAGGGGACCGUCCCCUCGGUAAUGGCGACUGGGACCCA", "self-cleavage": 0.158}]}]}
